Experimental data: the DeepSol protein solubility set

Test: soluble on expression in E. coli; label from the status in PepcDB or PDB records
With “MKGEEKMPSFDIVSEVDLQEARNGVDNAVREVESRFDFRGVEATIELNDANKTIKVLSESDFQVNQLLDILRAKLLKRGIEGASLDVPDEFVHSGKTWYVEAKLKQGIESAVQKKIVKLIKDSKLKVQAQIQGEEIRVTGKSRDDLQSVMALVRGGDLGQPFQFKNFRD” the “soluble on expression in E. coli” value was “not soluble”. In the case of “STPGPGASAPNSPMALLTLNCEKEMDDVIEDIISLESSYSDDILGFMDAGLQMTNTIPVSANLLDMYSNHALPPAGVSISNSCPSSLPAVKRELSVTPSPGMMHIMDKAGPCGKFDSYQRPDGFPVEVRALAKERQKKDNHNLIERRRRFNINDRIKELGTLIPKSNDPDMRWNKGTILKASVDYIRKLQKEQQNAKELENRQKRLEHANRHLLLRIQELEMQARAHGLTVVASSSLYSAELVARAIKQEPGMGDCTSNLYPHLPSPDMSRPTTLDLNNGTISYNDSPTEDGEPGVYDSPNKASTKLEDMLMDNTLSPVGSSDPLLSSGSPVPSNSSGSSSMDEHDNGC”, the “soluble on expression in E. coli” value is reported as “not soluble”. For “MGSDKIHHHHHHMKVFVIGAGLMGRGIAIAIASKHEVVLQDVSEKALEAAREQIPEELLSKIEFTTTLEKVKDCDIVMEAVFEDLNTKVEVLREVERLTNAPLCSNTSVISVDDIAERLDSPSRFLGVHWMNPPHVMPLVEIVISRFTDSKTVAFVEGFLRELGKEVVVCKGQSLVNRFNAAVLSEASRMIEEGVRAEDVDRVWKHHLGLLYTLFGPLGNLDYIGLDVAYYASLYLYKRFGDEKFKPPEWLQEKIKKGEVGVKAGKGIYEYGPKAYEERVERLKKLLRFLGLE”, the “soluble on expression in E. coli” value was “soluble”. With “MGSDKIHHHHHHKTLAANAVFATAFVKRDGSFGAAILSEAGKVLHAIDLPDRGHDVTFDPISKRSVVFARQPGTFAVVFDHSGRDAPQTVASISGRHFFGHGVFSPDGALLYATENDFDNAAGVIGIYDARAKFSRVGEFPTYGMGPHELLLLGDGRTMAVANGGIETHPDYGRAELNIATMKPSYVLIDRVTGDLIEKHELPASLHQLSIRHMDTDPSGTVWFGCQYRGPGTDRPLLVGRAVRGKELQLLDMPQDVLSGFRNYIGSVAANLSAGSVAVSSPEGNSLVVIDAASGRVVSSSALVEVCGLAPDGSGFIATTGAGEIIEGSGATRSEPDYVWDNHMLRIERA” the “soluble on expression in E. coli” value was “not soluble”. For “MARILVIEDEPLVGHMLRRFLERAGHDVVWAPNGEVGLRRLAEGFDLVVCDLIMPGIPGEEVIRRIREEAGPPVLAVSASVSRESQRRALEAGAQAFLGKPFEAQAFLRVVEGLLRGT”, the “soluble on expression in E. coli” value was “soluble”. With “MAHHHHHHMDMNFGFCNDAFFEQGNRSTDKEDIEELKKGESNEITKKGNNELGEEKELPKELCVPVTIKLLLSKMMSHEEFKIHDFQISGIIVFGKVCRIKELASAIIFEICDYTGNIEAKYNKDAKNEKVKDHIEGIKVNDHIKVVGVVYSPESKTEQIQISISYINKVEDWVSYFSYFTSDVIYCYLKLLKLKNIYTPNGVNNEDKPWSHVTLDTYYNQLDDIDTDIIKYLHTTSEKYANQQDIFEHLKKYHSEMNIKKSLTKLIEQYDLAQYEDIISIP” the “soluble on expression in E. coli” value was “not soluble”. With “MGSDKIHHHHHHMQVLVVDYTAKDAAEKFVQSLHETGFAVLVNHPIKQSLVESIYKNWQEFFLSEEKHAFAFDPVKQDGYFSSEISETAKGHSKKDIKEYFHVYPWGRIPAQLNDEIFEYYRLASELAAELLDWVEEYSPADIADKYSETLSNMIKETPNTLLRILHYPPLTGNEEAGAVRAASHEDINLLTILPAANEPGLQVQRQNGEWIDVPSDFGNLIINIGDMLQETSAGYFPSTSHRVINPTGKGSDKSRISLPLFLHPRSEVVLSDKHTQASYLLERLRELGVKV” the “soluble on expression in E. coli” value was “not soluble”. In the case of “MPKRNDIKTILVIGSGPIIIGQAAEFDYAGTQACLALKEEGYRVILVNSNPATIMTDKEIADKVYIEPLTHDFIARIIRKEQPDALLPTLGGQTGLNMAIQLHESGVLQDNNVQLLGTELTSIQQAEDREMFRTLMNDLNVPVPESDIVNTVEQAFKFKEQVGYPLIVRPAFTMGGTGGGICHNDEELHEIVSNGLHYSPATQCLLEKSIAGFKEIEYEVMRDKNDNAIVVCNMENIDPVGIHTGDSIVVAPSQTLSDVEYQMLRDVSLKVIRALGIEGGCNVQLALDPHSFDYYIIEVNPRVSRSSALASKATGYPIAKLAAKIAVGLTLDEMLNPITGTSYAAFEPTLDYVISKIPRFPFDKFEKGERELGTQMKATGEVMAIGRTYEESLLKAIRSLEYGVHHLGLPNGESFDLDYIKERISHQDDERLFFIGEAIRRGTTLEEIHNMTQIDYFFLHKFQNIIDIEHQLKEHQGDLEYLKYAKDYGFSDKTIAHRFNMTEEEVYQLRMENDIKPVYKMVDTCAAEFESSTPYYYGTYETENESIVTDKEKILVLGSGPIRIGQGVEFDYATVHAVWAIQKAGYEAIIVNNNPETVSTDFSISDKLYFEPLTEEDVMNIINLEKPKGVVVQFGGQTAINLADKLAKHGVKILGTSLENLNRAEDRKEFEALLRKINVPQPQGKTATSPEEALANAAEIGYPVVVRPSYVLGGRAMEIVDNDKELENYMTQAVKASPEHPVLVDRYLTGKEIEVDAICDGETVIIPGIMEHIERAGVHSGDSIAVYPPQTLTEDELATLEDYTIKLAKGLNIIGLINIQFVIAHDGVYVLEVNPRSSRTVPFLSKITDIPMAQLAMRAIIGEKLTDMGYQEGVQPYAEGVFVKAPVFSFNKLKNVDITLGPEMKSTGEVMGKDTTLEKALFKGLTGSGVEVKDHGTVLMTVSDKDKEEVVKLAQRLNEVGYKILATSGTANKLAEYDIPAEVVGKIGGENDLLTRIQNGDVQIVINTMTKGKEVERDGFQIRRTTVENGIPCLTSLDTANALTNVIESMTFTMRQM”, the “soluble on expression in E. coli” value is reported as “not soluble”. For “MPKVISQKEFNILSRTKERVNFQIVYTKQRNGLHKAAKEYFFKDKDFTIIEDTPDTPDQPDGPCITKGPKEPGGPEEPNGPDKPEDPKDPDTPDVSEGPKEQGGQKDPGGPDDPSEGKQKVSKPDKYVTHRELDEKLKDFATKADFKRVEDKVDVLFELQKTQGEQIKVQGEQIKAQGKQIEQLTETVKVQGEQIRAQGEQIKAQSEEIKEIKVEQKAQGEQIKELQVEQKAQGKTLQLILKTLEKMNERLEKLESKLEHHHHHH”, the “soluble on expression in E. coli” value was “not soluble”. In the case of “NPVENYIDEVLNEVLVVPNINSSNPTTSNSAPALDAAETGHTSSVQPEDVIETRYVQTSQTRDEMSLESFLGRSGCIHESKLEVTLANYNKENFTVWAINLQEMAQIRRKFELFTYTRFDSEITLVPCISALSQDIGHITMQYMYVPPGAPVPNSRDDYAWQSGTNASVFWQHGQAYPRFSLPFLSVASAYYMFYDGYDEQDQNYGTANTNNMGSLCSRIVTEKHIHKVHIMTRIYHKAKHVKAWCPRPPRALEYTRAHRTNFKIEDRSIQTAIVTRPIITTAGPSDMY”, the “soluble on expression in E. coli” value is reported as “soluble”. For “GSHMKISARNVFKGTVSALKEGAVNAEVDILLGGGDKLAAVVTLESARSLQLAAGKEVVAVVKAPWVLLMTDSSGYRLSARNILTGTVKTIETGAVNAEVTLALQGGTEITSMVTKEAVAELGLKPGASASAVIKASNVILGVPA”, the “soluble on expression in E. coli” value was “soluble”. In the case of “MGSDKIHHHHHHMMRVFHLVLAPRLSGAEVLAKDLALDQCAEGMAVCVASLLPAHAEFAPLQDDLQRHGVQCVFPRRRHRALVKLCHLFGAVRRFRPDVIFAHATIPSFYARALPLRVPVVYVMHSATNDFERPLFRRIEHILSGRARVVIGVSEQGVTDYVQAIGPHPSMTVVPNGVDLARFSFTDGVERDGRTPQVVQIGRYAAVKNQLATVRAFSEVLMKGKDARLVLYGVVEDPDYQRAVVALAKELGIAERVVVAGPRTDVATVLSESNVFVMPSQSEAHSVAFLEALASGVPIVASKIPAFAFANGFPGVQLIDTDNVQCYAEAVIAALGQERAQRSLTGLTLRDTADRYRAIARQVSLAVPAR”, the “soluble on expression in E. coli” value is reported as “not soluble”.
